Earlier results as cited in patent US20260263505A1, “Uses of Compositions Comprising a Prebiotic Component” (Mead Johnson Nutrition Company, priority 2021, published 2026).

Tested on: Rats
Conditions: after four weeks of diet, acute inescapable stressor

B1: lactoferrin: multifunctional iron-binding glycoprotein naturally present in milk; test diet of Mika et al. (protein, UniProt P24627 20-708, looked up)
Lactotransferrin: APRKNVRWCTISQPEWFKCRRWQWRMKKLGAPSITCVRRAFALECIRAIAEKKADAVTLDGGMVFEAGRDPYKLRPVAAEIYGTKESPQTHYYAVAVVKKGSNFQLDQLQGRKSCHTGLGRSAGWIIPMGILRPYLSWTESLEPLQGAVAKFFSASCVPCIDRQAYPNLCQLCKGEGENQCACSSREPYFGYSGAFKCLQDGAGDVAFVKETTVFENLPEKADRDQYELLCLNNSRAPVDAFKECHLAQVPSHAVVARSVDGKEDLIWKLLSKAQEKFGKNKSRSFQLFGSPPGQRDLLFKDSALGFLRIPSKVDSALYLGSRYLTTLKNLRETAEEVKARYTRVVWCAVGPEEQKKCQQWSQQSGQNVTCATASTTDDCIVLVLKGEADALNLDGGYIYTAGKCGLVPVLAENRKSSKHSSLDCVLRPTEGYLAVAVVKKANEGLTWNSLKDKKSCHTAVDRTAGWNIPMGLIVNQTGSCAFDEFFSQSCAPGADPKSRLCALCAGDDQGLDKCVPNSKEKYYGYTGAFRCLAEDVGDVAFVKNDTVWENTNGESTADWAKNLNREDFRLLCLDGTRKPVTEAQSCHLAVAPNHAVVSRSDRAAHVKQVLLHQQALFGKNGKNCPDKFCLFKSETKNLLFNDNTECLAKLGGRPTYEEYLGTEYVTAIANLKKCSTSPLLEACAFLTR
  stress-evoked cfos mRNA in the dorsal raphe nucleus: reduce
